Test results taken from publication PMC9376091 (Scientific Reports, 2022).
Where “and” joins values, the source holds several entries; their conditions need not be identical. Equal entries are not always repeated.

Target: the molecule itself
Assay: AUC

B1: homoserine acetyl transferase (HSAT, MetX, Rv3341) from M. tuberculosis, recombinant (His)6-MetX (enzyme)
chain: MTISDVPTQTLPAEGEIGLIDVGSLQLESGAVIDDVCIAVQRWGKLSPARDNVVVVLHALTGDSHITGPAGPGHPTPGWWDGVAGPGAPIDTTRWCAVATNVLGGCRGSTGPSSLARDGKPWGSRFPLISIRDQVQADVAALAALGITEVAAVVGGSMGGARALEWVVGYPDRVRAGLLLAVGARATADQIGTQTTQIAAIKADPDWQSGDYHETGRAPDAGLRLARRFAHLTYRGEIELDTRFANHNQGNEDPTAGGRYAVQSYLEHQGDKLLSRFDAGSYVILTEALNSHDVGRGRGGVSAALRACPVPVVVGGITSDRLYPLRLQQELADLLPGCAGLRVVESVYGHDGFLVETEAVGELIRQTLGLADREGACRR
stoichiometry N: 2 and 4
